The assay has as its target Human GCGR (Q27-F477) with N-terminal FLAG and C-terminal octahistidine tag (human, UniProt P47871 27-477). Put plainly: cryo-EM structure.

Human GCGR (Q27-F477) with N-terminal FLAG and C-terminal octahistidine tag, sequence (P47871 27-477): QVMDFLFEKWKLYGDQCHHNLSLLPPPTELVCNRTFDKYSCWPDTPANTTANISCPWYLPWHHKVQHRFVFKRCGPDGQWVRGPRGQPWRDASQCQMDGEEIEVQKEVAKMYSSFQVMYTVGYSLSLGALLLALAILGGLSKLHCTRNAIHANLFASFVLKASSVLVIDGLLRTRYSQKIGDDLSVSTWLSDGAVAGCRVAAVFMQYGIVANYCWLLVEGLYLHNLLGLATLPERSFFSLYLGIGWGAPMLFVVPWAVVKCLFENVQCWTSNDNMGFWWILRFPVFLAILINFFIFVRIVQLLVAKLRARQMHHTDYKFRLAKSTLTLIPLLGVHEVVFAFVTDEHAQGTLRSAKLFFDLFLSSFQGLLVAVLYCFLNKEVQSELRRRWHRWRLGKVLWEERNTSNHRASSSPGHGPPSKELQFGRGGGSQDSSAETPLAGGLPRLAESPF

B1: Gαs (human, short splice variant), subunit of the Gs heterotrimer (natural protein)
chain: MGCLGNSKTEDQRNEEKAQREANKKIEKQLQKDKQVYRATHRLLLLGAGESGKSTIVKQMRILHVNGFNGDSEKATKVQDIKNNLKEAIETIVAAMSNLVPPVELANPENQFRVDYILSVMNVPDFDFPPEFYEHAKALWEDEGVRACYERSNEYQLIDCAQYFLDKIDVIKQADYVPSDQDLLRCRVLTSGIFETKFQVDKVNFHMFDVGGQRDERRKWIQCFNDVTAIIFVVASSSYNMVIREDNQTNRLQEALNLFKSIWNNRWLRTISVILFLNKQDLLAEKVLAGKSKIEDYFPEFARYTTPEDATPEPGEDPRVTRAKYFIRDEFLRISTASGDGRHYCYPHFTCAVDTENIRRVFNDCRDIIQRMHLRQYELL
In the case of B1, the binding result is given as “binds”.

The values above are taken from paper PMC7954662 (Science (New York, N.Y.), 2020).
